B1: E3 ubiquitin-protein ligase NEDD4-like, residues 539 to 589; numbered along this chain, Q96PU5 (parent)
chain: KTSLNPNDLGPLPPGWEERIHLDGRTFYIDHNSKITQWEDPRLQNPAITGP

Variants of: B1
Assay: abundance fitness (aPCA) (normalised: wild type 0, dead -1); higher = more abundant; growth selection in yeast, the domain comes from the species named
Conditions: Homo sapiens

Abundance fitness, by site and new letter:
P11: H -0.586, I -0.322, L -0.41, M -0.232, N -0.177, R -0.168, T -0.127, V -0.221, W -0.613, Y -0.601
L12: A -0.627, C -0.824, D -0.736, E -0.563, F -0.088, G -1.2, H -0.863, I -0.488, M -0.121, N -0.534, P -0.62, Q -0.773, R -0.864, S -0.695, T -0.427, V -0.568, W -0.72, Y -0.788
P13: A -0.495, C -0.766, D -0.322, E -0.506, F -0.616, H -1.04, I -0.933, K -0.559, L -0.745, M -0.799, N -0.437, Q -0.585, R -0.698, S -0.605, T -1, V -1.1, Y -0.023
P14: A 0.008, C -0.1, D 0.023, E 0.009, F -0.066, G -0.205, H -0.159, I -0.227, K -0.044, L -0.204, M -0.256, N -0.355, Q -0.17, R -0.085, S -0.042, T -0.118, V -0.122, W -0.433, Y -0.066
G15: A -0.361, C -0.442, D -0.471, E -0.425, F -0.491, H -0.407, I -0.429, K -0.447, L -0.622, M -0.406, N -0.018, P -0.471, Q -0.321, R -0.498, S -0.394, T -0.526, Y -0.53
W16: A -0.342, C -0.502, D -0.353, E -0.393, G -0.223, H -0.386, I -0.684, K -0.29, L -0.509, M -0.46, N -0.222, P -0.385, Q -0.388, R -0.408, S -0.471, T -0.565, Y -0.41
E17: A -0.705, C -0.457, D -0.606, F -0.753, H -0.157, I -0.432, K -0.571, L -0.856, M -0.821, N -0.61, P -0.877, Q -0.361, R -0.746, S -0.246, T -0.628, V -0.477, Y -0.986
E18: A -0.071, C -0.252, F -0.736, G -0.503, H -0.68, I -0.796, K -0.274, L -0.802, M -0.444, P -0.48, Q 0, R -0.159, T -0.27, V -0.322, W -0.962, Y -0.417
R19: A -0.283, C -0.138, D -0.421, E -0.192, F -0.28, G -0.175, H -0.423, I -0.181, K -0.198, L -0.354, M -0.233, N -0.368, P -0.969, Q -0.361, S -0.132, T -0.342, V -0.155, Y -0.216
I20: A -0.069, C 0.192, E 0.022, F -0.246, G -0.289, H -0.125, K 0.209, L -0.024, M -0.131, N -0.467, P -0.226, Q -0.148, R -0.006, S 0.047, V 0.093, W -0.228, Y -0.164
H21: A 0.102, C 0.057, D 0.101, E -0.052, F -0.439, G 0.166, I -0.478, K -0.178, L -0.289, M -0.124, N -0.244, P -0.693, R -0.149, S 0.221, T 0.087, V -0.296, W -0.051, Y -0.151
L22: A 0.156, C -0.219, D 0.048, F -0.23, G 0.085, I -0.107, K 0.206, M 0.013, N -0.247, P 0.246, Q 0.152, R 0.052, S 0.154, T 0.141, V 0.089, W -0.167, Y 0.07
D23: A -0.779, C -0.135, E -0.584, F -1.12, G -0.388, H -0.593, I -0.725, K -0.333, L -0.548, M -0.5, N -0.064, P -0.445, Q -0.252, R -0.645, S -0.036, T -0.031, V -0.876, Y -0.715
G24: A -0.608, C -0.917, E -0.719, F -1.35, I -1.12, K -0.53, L -0.938, M -1.08, N -0.639, P -1.14, Q -0.705, R -0.56, S -0.531, V -1.03, W -1.07, Y -0.76
R25: A -0.301, C -0.393, D -0.287, E -0.198, F -0.568, G -0.265, H -0.382, I -0.757, L -0.598, M -0.48, N -0.164, P -0.558, Q -0.187, S -0.063, T -0.068, V -0.54, W -0.72, Y -0.569
T26: A -0.065, C -0.065, D -0.635, E -0.403, F -0.287, H 0.084, I -0.131, K 0.056, L -0.136, M -0.125, N -0.187, P -0.051, Q -0.284, R -0.011, S -0.113, V -0.077, W -0.645, Y -0.105
F27: A -0.112, C -0.056, D -0.27, E 0.175, G -0.197, I -0.163, K -0.002, L -0.039, N -0.201, P -0.357, Q 0.042, R -0.163, S -0.092, T -0.089, V -0.188, W -0.346
Y28: C -0.902, D -0.399, F -0.347, G -0.451, H -0.636, I -0.273, K -0.332, L -0.703, M -0.991, N -0.851, P -0.242, Q -0.424, R -0.536, S -0.399, T -0.626, V -0.696, W -0.008
I29: A -0.299, C -0.124, D -0.422, E -0.105, G -0.482, H -0.782, K -0.027, L -0.175, M -0.141, N -0.378, Q -0.176, R -0.271, S -0.318, T -0.166, V 0.013, W -0.332, Y -0.017
D30: A -0.539, C -0.166, E -0.24, F -0.546, G -0.617, H 0.125, I -0.87, K -0.369, L -0.591, M -0.753, N 0.166, P -0.953, Q -0.424

— the Human Domainome abundance scans (Beltran et al. 2025)
